Substitutions are numbered along the chain they refer to. Names and notes keep the numbering of the source.
T1: human IL-18BP (human, UniProt O95998 31-194)
T1 construct: UniProt printed as 095998; also called hIL-18BP
T1 sequence: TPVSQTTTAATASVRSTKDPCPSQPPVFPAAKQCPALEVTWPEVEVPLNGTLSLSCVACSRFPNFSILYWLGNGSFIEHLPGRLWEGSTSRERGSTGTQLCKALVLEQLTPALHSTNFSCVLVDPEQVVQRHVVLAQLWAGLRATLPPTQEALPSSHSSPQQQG

T2: human IL-18BP (interleukin-18 binding protein, isoform A) (human, UniProt O95998 31-194)
T2 sequence: T1 sequence

B1: SA301a HC-Y53K (antibody, name in Kabat numbering, V domains shown)
VH: QVQLQESGPGLVKPSQTLSLTCTVSGYSITSDYNSHWIRQPPGKGLEWIGYIHKSGSTNYNPSLKSRVTISRDTSKNQFSLKLSSVTAADTAVYYCARNYGSIYVNYFDYWGQGTLVTVSS
VL: EIVLTQSPATLSLSPGERATLSCSASSSVSYMYWYQQKPGQAPRPLIYRTSNLASGIPARFSGSGSGTDFTLTISSLEPEDFAVYYCQQYHSYPTFGGGTKVEIK
notes: IgG1 kappa
B2: SA301a HC-Y53H (antibody, name in Kabat numbering, V domains shown)
VH: B1 VH with K54H
VL: B1 VL
notes: IgG1 kappa
B3: SA301a HC-Y53G (antibody, name in Kabat numbering, V domains shown)
VH: B1 VH with K54G
VL: B1 VL
notes: IgG1 kappa
B4: SA301a HC-S54T (antibody, name in Kabat numbering, V domains shown)
VH: B1 VH with K54Y, S55T
VL: B1 VL
notes: IgG1 kappa
B5: SA301a HC-S54M (antibody, name in Kabat numbering, V domains shown)
VH: B1 VH with K54Y, S55M
VL: B1 VL
notes: IgG1 kappa
B6: SA301a HC-S54Q (antibody, name in Kabat numbering, V domains shown)
VH: B1 VH with K54Y, S55Q
VL: B1 VL
notes: IgG1 kappa
B7: SA301a HC-Y53I (antibody, name in Kabat numbering, V domains shown)
VH: B1 VH with K54I
VL: B1 VL
notes: IgG1 kappa
B8: SA301a HC-H52K (antibody, name in Kabat numbering, V domains shown)
VH: B1 VH with H53K, K54Y
VL: B1 VL
notes: IgG1 kappa
B9: SA301a HC-Y53R (antibody, name in Kabat numbering, V domains shown)
VH: B1 VH with K54R
VL: B1 VL
notes: IgG1 kappa
B10: SA301a HC-S54G (antibody, name in Kabat numbering, V domains shown)
VH: B1 VH with K54Y, S55G
VL: B1 VL
notes: IgG1 kappa
B11: SA301a HC-H52P (antibody, name in Kabat numbering, V domains shown)
VH: B1 VH with H53P, K54Y
VL: B1 VL
notes: IgG1 kappa
B12: SA301a HC-H52A (antibody, name in Kabat numbering, V domains shown)
VH: B1 VH with H53A, K54Y
VL: B1 VL
notes: IgG1 kappa
B13: SA301a HC-Y53M (antibody, name in Kabat numbering, V domains shown)
VH: B1 VH with K54M
VL: B1 VL
notes: IgG1 kappa
B14: SA301a HC-Y53V (antibody, name in Kabat numbering, V domains shown)
VH: B1 VH with K54V
VL: B1 VL
notes: IgG1 kappa
B15: SA301a HC-Y53F (antibody, name in Kabat numbering, V domains shown)
VH: B1 VH with K54F
VL: B1 VL
notes: IgG1 kappa
B16: SA301a HC-Y53T (antibody, name in Kabat numbering, V domains shown)
VH: B1 VH with K54T
VL: B1 VL
notes: IgG1 kappa
B17: SA301a HC-Y53L (antibody, name in Kabat numbering, V domains shown)
VH: B1 VH with K54L
VL: B1 VL
notes: IgG1 kappa
B18: SA301a HC-Y53E (antibody, name in Kabat numbering, V domains shown)
VH: B1 VH with K54E
VL: B1 VL
notes: IgG1 kappa
B19: SA301a HC-S54Y (antibody, name in Kabat numbering, V domains shown)
VH: B1 VH with K54Y, S55Y
VL: B1 VL
notes: IgG1 kappa
B20: SA301a HC-S54V (antibody, name in Kabat numbering, V domains shown)
VH: B1 VH with K54Y, S55V
VL: B1 VL
notes: IgG1 kappa
B21: SA301a HC-Y53S (antibody, name in Kabat numbering, V domains shown)
VH: B1 VH with K54S
VL: B1 VL
notes: IgG1 kappa
B22: SA301a HC-Y53P (antibody, name in Kabat numbering, V domains shown)
VH: B1 VH with K54P
VL: B1 VL
notes: IgG1 kappa
B23: SA301a HC-Y53A (antibody, name in Kabat numbering, V domains shown)
VH: B1 VH with K54A
VL: B1 VL
notes: IgG1 kappa
B24: SA301a HC-Y53Q (antibody, name in Kabat numbering, V domains shown)
VH: B1 VH with K54Q
VL: B1 VL
notes: IgG1 kappa
B25: SA301a HC-S54L (antibody, name in Kabat numbering, V domains shown)
VH: B1 VH with K54Y, S55L
VL: B1 VL
notes: IgG1 kappa
B26: SA301a HC-S54N (antibody, name in Kabat numbering, V domains shown)
VH: B1 VH with K54Y, S55N
VL: B1 VL
notes: IgG1 kappa
B27: SA301a HC-S54P (antibody, name in Kabat numbering, V domains shown)
VH: B1 VH with K54Y, S55P
VL: B1 VL
notes: IgG1 kappa
B28: SA301a HC-H52Y (antibody, name in Kabat numbering, V domains shown)
VH: B1 VH with H53Y, K54Y
VL: B1 VL
notes: IgG1 kappa
B29: SA301a HC-H52T (antibody, name in Kabat numbering, V domains shown)
VH: B1 VH with H53T, K54Y
VL: B1 VL
notes: IgG1 kappa
B30: SA301a HC-S54R (antibody, name in Kabat numbering, V domains shown)
VH: B1 VH with K54Y, S55R
VL: B1 VL
notes: IgG1 kappa
B31: SA301a HC-Y53D (antibody, name in Kabat numbering, V domains shown)
VH: B1 VH with K54D
VL: B1 VL
notes: IgG1 kappa
B32: SA304a (antibody, human IgG1, V domains shown)
VH: B1 VH with S35A, K54Y, G101A
VL: B1 VL
B33: SA306a (antibody, human IgG1, V domains shown)
VH: B1 VH with S35N, K54Y
VL: B1 VL
B34: SA305a (antibody, human IgG1, V domains shown)
VH: B1 VH with S35A, K54Y, Y100F, G101A
VL: B1 VL
B35: SA302a HC-N33bA (antibody, V domains shown)
VH: B1 VH with N34A, S35A, K54Y
VL: B1 VL
B36: SA302a HC-N33bV (antibody, V domains shown)
VH: B1 VH with N34V, S35A, K54Y
VL: B1 VL
B37: SA302a HC-H35G (antibody, V domains shown)
VH: B1 VH with S35A, H36G, K54Y
VL: B1 VL
B38: SA302a HC-N33bQ (antibody, V domains shown)
VH: B1 VH with N34Q, S35A, K54Y
VL: B1 VL
B39: SA302a HC-H35L (antibody, V domains shown)
VH: B1 VH with S35A, H36L, K54Y
VL: B1 VL
B40: SA302a HC-H35D (antibody, V domains shown)
VH: B1 VH with S35A, H36D, K54Y
VL: B1 VL
B41: SA302a HC-N33bT (antibody, V domains shown)
VH: B1 VH with N34T, S35A, K54Y
VL: B1 VL
B42: SA302a HC-N33bK (antibody, V domains shown)
VH: B1 VH with N34K, S35A, K54Y
VL: B1 VL
B43: SA302a HC-H35N (antibody, V domains shown)
VH: B1 VH with S35A, H36N, K54Y
VL: B1 VL
B44: SA302a HC-N33bP (antibody, V domains shown)
VH: B1 VH with N34P, S35A, K54Y
VL: B1 VL
B45: SA302a HC-H35R (antibody, V domains shown)
VH: B1 VH with S35A, H36R, K54Y
VL: B1 VL

target: T1, human IL-18BP; experiment: BLI, apparent KD

B1 and B2 are within 1.5-fold of each other in Kd: 3.16 nM for the first, 2.41 nM for the second.

First: B3
Second: B4
The Kd of the first is 1.6-fold higher: 1.86 nM for the first, 1.14 nM for the second. The second binds more tightly here.

B5 and B6 are within 1.5-fold of each other in Kd: 1.94 nM for the first, 2.31 nM for the second.

Going from B7 to B8, the Kd falls from 1.87 nM to 0.01 nM (190-fold).

Compared with B9, B10 is 21-fold lower in Kd: 7.08 nM for the first, 0.33 nM for the second.

First: B11
Second: B12
The Kd of the first is 24-fold lower: 0.01 nM for the first, 0.24 nM for the second. The first binds more tightly here.

Going from B13 to B14, the Kd rises from 0.4 nM to 2.16 nM (5.4-fold). The first binds more tightly here.

Compared with B15, B16 is 5-fold higher in Kd: 0.39 nM for the first, 1.95 nM for the second.

Going from B17 to B18, the Kd rises from 2.42 nM to 5.06 nM (2.1-fold). The first binds more tightly here.

Going from B19 to B20, the Kd falls from 4.66 nM to 0.55 nM (8.5-fold).

First: B21
Second: B22
The Kd of the first is 6.9-fold higher: 2.64 nM for the first, 0.38 nM for the second. The second binds more tightly here.

B23 and B24 are within 1.5-fold of each other in Kd: 2.6 nM for the first, 1.81 nM for the second.

Compared with B25, B26 is 7.3-fold lower in Kd: 2.64 nM for the first, 0.36 nM for the second. The second binds more tightly here.

B27 and B28 are within 1.5-fold of each other in Kd: 1.11 nM for the first, 0.79 nM for the second.

Compared with B29, B30 is 2.1-fold higher in Kd: 1.92 nM for the first, 4.06 nM for the second. The first binds more tightly here.

Binder B31 has a Kd of 3.2 nM.

target: T2, human IL-18BP (interleukin-18 binding …); experiment: cell-based or functional assay

Going from B32 to B33, the “EC50 in PBMC Assay 1 (endogenous IL-18BP), IFNγ” value rises from 3.1 nM to 127 nM (41-fold).

For B34, the “EC50 in PBMC Assay 1 (endogenous IL-18BP), IFNγ” value was 4.4 nM.

Going from B32 to B33, the “EC50 in PBMC Assay 2 (precomplexed IL-18BP), IFNγ” value rises from 3 nM to 19.7 nM (6.6-fold).

In the case of B34, the “EC50 in PBMC Assay 2 (precomplexed IL-18BP), IFNγ” value is reported as 0.79 nM.

target: T1, human IL-18BP; experiment: BLI, apparent KD; remark: another data set of the same source

First: B35
Second: B36
The Kd of the first is 4-fold higher: 5.45 nM for the first, 1.36 nM for the second.

Compared with B37, B38 is 2.9-fold higher in Kd: 2.05 nM for the first, 6.01 nM for the second.

Compared with B39, B40 is 2.4-fold higher in Kd: 1.74 nM for the first, 4.23 nM for the second. The first binds more tightly here.

B41 and B42 are within 1.5-fold of each other in Kd: 1.63 nM for the first, 1.12 nM for the second.

Going from B43 to B44, the Kd rises from 3.02 nM to 6.05 nM (2-fold). The first binds more tightly here.

B45 gave a Kd of 1.18 nM.

From patent publication US20250368745A1 (published 2025)
